This passage reports level of infection of THP-1 cells, HB-19 together with anti-CR3 Mab results from patent publication EP2033655B1.

The test deals with Cell-surface expressed nucleolin (on THP-1 monocytic cells; on HeLa P4 cells) (human), P19338. Put plainly: cell-based or functional assay.

Ends that are not written are not given here.

Chain of Cell-surface expressed nucleolin (on THP-1 monocytic cells; on HeLa P4 cells) (human), P19338 (P19338 2-710 limits assumed): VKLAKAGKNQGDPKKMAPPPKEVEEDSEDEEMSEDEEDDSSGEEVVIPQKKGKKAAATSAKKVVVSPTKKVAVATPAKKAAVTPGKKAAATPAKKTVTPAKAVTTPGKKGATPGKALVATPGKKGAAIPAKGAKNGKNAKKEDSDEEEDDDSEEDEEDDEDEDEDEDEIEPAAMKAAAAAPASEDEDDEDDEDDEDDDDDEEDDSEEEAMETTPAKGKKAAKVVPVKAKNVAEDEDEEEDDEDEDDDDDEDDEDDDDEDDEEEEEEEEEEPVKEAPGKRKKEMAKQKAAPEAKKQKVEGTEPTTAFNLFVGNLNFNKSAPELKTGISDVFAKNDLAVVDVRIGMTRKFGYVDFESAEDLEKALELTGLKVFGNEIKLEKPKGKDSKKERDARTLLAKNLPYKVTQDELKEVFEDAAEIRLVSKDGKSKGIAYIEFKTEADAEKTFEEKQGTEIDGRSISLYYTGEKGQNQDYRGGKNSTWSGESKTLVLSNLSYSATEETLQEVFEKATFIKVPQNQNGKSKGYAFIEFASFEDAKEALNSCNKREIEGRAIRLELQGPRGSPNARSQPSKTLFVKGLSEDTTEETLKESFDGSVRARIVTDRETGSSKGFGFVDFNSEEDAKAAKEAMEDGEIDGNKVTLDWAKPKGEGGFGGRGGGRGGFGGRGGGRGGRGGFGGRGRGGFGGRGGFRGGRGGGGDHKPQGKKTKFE

B1: HB-19 pseudopeptide, 5[Lys (CH2N)Pro-Arg]-template-assembled synthetic peptide (peptide)
chain: KKKGPKEK
peptide: Lys-Pro-Arg
modifications: also: Lys (CH2N)Pro reduced bond, five Lys-Pro-Arg units assembled on template
B1 had a level of infection of THP-1 cells, HB-19 together with anti-CR3 Mab of 95%.
